These results are taken from patent publication US20230287598A1 (TAURUS BIOSCIENCES, published 2023).

Like-named read-outs stand apart in the source and are kept apart here.

Assay [1] has as its target T1, CXCR1 (UniProt P25024 1-350, limits assumed).
T1 sequence (looked up): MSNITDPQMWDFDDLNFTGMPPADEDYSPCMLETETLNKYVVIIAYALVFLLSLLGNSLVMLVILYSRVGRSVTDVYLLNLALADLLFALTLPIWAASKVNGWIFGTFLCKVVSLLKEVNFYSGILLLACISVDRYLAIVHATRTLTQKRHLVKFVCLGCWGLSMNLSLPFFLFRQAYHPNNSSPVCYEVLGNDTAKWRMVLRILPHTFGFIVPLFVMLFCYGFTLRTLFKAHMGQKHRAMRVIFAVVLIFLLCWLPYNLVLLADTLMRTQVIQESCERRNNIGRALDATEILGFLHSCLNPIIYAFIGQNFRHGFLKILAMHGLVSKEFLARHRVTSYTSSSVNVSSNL
Kind of assay: cell-based or functional assay.

Assay [2] concerns the target T1, CXCR1. Kind of assay: flow cytometry, supernatant at 5 nM IgG. A general note: Flow cytometry measures light scatter and fluorescence of single cells or particles in a stream.
Procedure: (§1) Briefly, a cell line expressing functionally validated CXCR1 derived from U2OS cells was obtained from DiscoveRx and cultured per manufacturer’s instructions (Cat# 93-0226C3, DiscoveRx Corporation, Freemont, CA). The parental cell line U2OS was obtained from ATCC and cultured under the same conditions as the CXCR1 cells. Cell culture supernatants were then tested for binding to cells by flow cytometry. The adherent U2OS or CXCR1-U2OS cells were dissociated with Accutase (Innovative Cell Technologies, Inc., San Diego, CA), neutralized with an equal volume of media containing 10% serum, centrifuged at 1000 g, and resuspended in PBS with 2%BSA. Next, cells were dispensed into microtiter plates to achieve between 30,000 to 300,000 cells per well, centrifuged again, and resuspended in cell culture supernatant containing expressed IgG, or a dilution of IgG-containing cell culture supernatant. A fluorescent-conjugated anti-Human Fc antibody was used to detect binding of the expressed antibody to cells.
The ability of IL-8 within CDR3 in these antibodies to specifically bind CXCR1 receptor was evaluated by comparing the median fluorescence of cells expressing CXCR1 as compared to the median fluorescence of parental cells.
The target of assay [3] is T1, CXCR1. Kind of assay: flow cytometry, supernatant at 5 nM IgG. The source holds these as a separate data set.
Procedure: as §1
The ability of IL-8 within CDR3 in these antibodies to specifically bind CXCR1 receptor was evaluated by comparing the median fluorescence of cells expressing CXCR1 as compared to the median fluorescence of parental cells. The ratio of these median AFU was calculated as previously in Table 19.

B1: VH4-34+CDR3-IL8_CDR1-Cow_CDR2-Cow / VL1-51 S2A, T5N, P8S, A12G, A13S, P14L, K46R, L47T, D51G, N52D, N53T IgG (antibody)
VH: QVQLQQWGAGLLKPSETLSLTCTASGFSLSDKAVGWIRQPPGKGLEWLGSIDTGGNTGYNPSLKSRVTISVDTSKNQFSLKLSSVTAADTAVYYCTSVHQETKKYQSPRSAKELRCQCIKTYSKPFHPKFIKELRVIESGPHCANTEIIVKLSDGRELCLDPKENWVQRVVEKFLKRAENSGSGSYTYNYEWHVDVWGQGLLVTVSSAS
light: QAVLNQPSSVSGSLGQKVTISCSGSSSNIGNNYVSWYQQLPGTAPRTLIYGDTKRPSGIPDRFSGSKSGTSATLGITGLQTGDEADYYCASAEDSSSNAVFGSGTTLTVLGQPKAAPSVTLFPPSSEELQANKATLVCLISDFYPGAVTVAWKADSSPVKAGVETTTPSKQSNNKYAASSYLSLTPEQWKSHRSYSCQVTHEGSTVEKTVAPTECS
notes: also called BID 39; VH4-34 MutD IL-8 CDR1cow CDR2cow
On to B1, for which, in assay [1], the “CXCR1 activation, luminescence at 0.4 nM IL-8 domains” value came to 6310; the “CXCR1 activation, luminescence at 1.6 nM IL-8 domains” value turned out to be 7400; the “CXCR1 activation, luminescence at 6.25 nM IL-8 domains” value amounted to 10200; the “CXCR1 activation, luminescence at 25 nM IL-8 domains” value was determined as 15400. For the same molecule, the “CXCR1 activation, luminescence at 100 nM IL-8 domains” value in assay [1] came out at 21600. In assay [2], the “Specific Binding (CXCR1-Cell median AFU / Parental Cell median AFU)” value was 13.

B2: VH4-34+CDR3-IL8 / VL1-51 S2A, T5N, P8S, A12G, A13S, P14L, K46R, L47T, D51G, N52D, N53T IgG (antibody)
VH: QVQLQQWGAGLLKPSETLSLTCAVYGGSFSGYYWSWIRQPPGKGLEWIGEINHSGSTNYNPSLKSRVTISVDTSKNQFSLKLSSVTAADTAVYYCTSVHQETKKYQSPRSAKELRCQCIKTYSKPFHPKFIKELRVIESGPHCANTEIIVKLSDGRELCLDPKENWVQRVVEKFLKRAENSGSGSYTYNYEWHVDVWGQGLLVTVSSAS
light: QAVLNQPSSVSGSLGQKVTISCSGSSSNIGNNYVSWYQQLPGTAPRTLIYGDTKRPSGIPDRFSGSKSGTSATLGITGLQTGDEADYYCASAEDSSSNAVFGSGTTLTVLGQPKAAPSVTLFPPSSEELQANKATLVCLISDFYPGAVTVAWKADSSPVKAGVETTTPSKQSNNKYAASSYLSLTPEQWKSHRSYSCQVTHEGSTVEKTVAPTECS
notes: nt HC 430, LC 486
Regarding B2, the “Specific Binding (CXCR1-Cell median AFU / Parental Cell median AFU)” value in assay [2] was found to be 12.

B3: VH4-34+CDR3-IL8_CDR2 Cow / VL1-51 S2A, T5N, P8S, A12G, A13S, P14L, K46R, L47T, D51G, N52D, N53T IgG (antibody)
VH: QVQLQQWGAGLLKPSETLSLTCAVYGGSFSGYYWSWIRQPPGKGLEWLGSIDTGGNTGYNPSLKSRVTISVDTSKNQFSLKLSSVTAADTAVYYCTSVHQETKKYQSPRSAKELRCQCIKTYSKPFHPKFIKELRVIESGPHCANTEIIVKLSDGRELCLDPKENWVQRVVEKFLKRAENSGSGSYTYNYEWHVDVWGQGLLVTVSSAS
light: QAVLNQPSSVSGSLGQKVTISCSGSSSNIGNNYVSWYQQLPGTAPRTLIYGDTKRPSGIPDRFSGSKSGTSATLGITGLQTGDEADYYCASAEDSSSNAVFGSGTTLTVLGQPKAAPSVTLFPPSSEELQANKATLVCLISDFYPGAVTVAWKADSSPVKAGVETTTPSKQSNNKYAASSYLSLTPEQWKSHRSYSCQVTHEGSTVEKTVAPTECS
notes: nt HC 433, LC 486
Take B3: in assay [2], the “Specific Binding (CXCR1-Cell median AFU / Parental Cell median AFU)” value was determined as 3.

B4: VH4-34+CDR3-IL8_CDR1-G31DY32K_CDR2-E50S_Q5RQ6E / VL1-51 S2A, T5N, P8S, A12G, A13S, P14L, K46R, L47T, D51G, N52D, N53T IgG (antibody)
VH: QVQLREWGAGLLKPSETLSLTCAVYGGSFSDKYWSWIRQPPGKGLEWIGSINHSGSTNYNPSLKSRVTISVDTSKNQFSLKLSSVTAADTAVYYCTSVHQETKKYQSPRSAKELRCQCIKTYSKPFHPKFIKELRVIESGPHCANTEIIVKLSDGRELCLDPKENWVQRVVEKFLKRAENSGSGSYTYNYEWHVDVWGQGLLVTVSS
light: QAVLNQPSSVSGSLGQKVTISCSGSSSNIGNNYVSWYQQLPGTAPRTLIYGDTKRPSGIPDRFSGSKSGTSATLGITGLQTGDEADYYCASAEDSSSNAVFGSGTTLTVLGQPKAAPSVTLFPPSSEELQANKATLVCLISDFYPGAVTVAWKADSSPVKAGVETTTPSKQSNNKYAASSYLSLTPEQWKSHRSYSCQVTHEGSTVEKTVAPTECS
notes: also called BID 38; VH4-34 MutE IL-8 5R6E31D32K50S
Consider B4, for which, in assay [1], the “CXCR1 activation, luminescence at 0.4 nM IL-8 domains” value worked out at 6190; the “CXCR1 activation, luminescence at 1.6 nM IL-8 domains” value amounted to 8160; the “CXCR1 activation, luminescence at 6.25 nM IL-8 domains” value was 13500; the “CXCR1 activation, luminescence at 25 nM IL-8 domains” value was 21000. In assay [1], the “CXCR1 activation, luminescence at 100 nM IL-8 domains” value was found to be 25900. In addition, the “Specific Binding (CXCR1-Cell median AFU / Parental Cell median AFU)” value in assay [3] is 4.
